# Results as given in the supplement of paper PMC9233669.
# Fewer inactive variants are shown than the library holds.
# Key:
# biotinyl-Val-oxazolone = test: self-aminoacylation, catalytic enhancement (BVO) (fold over background); higher = more active; k-Seq, kA / k0A0; sequences stand for … in GGGAAUGGAUCCACAUCUACGAAUUC…UUCACUGCAGACUUGACGAAGCUG
# Method in brief: (§1)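 Each biotinyl-aminoacyl-oxazolone, at 2–1250 μM, was incubated with mutagenized RNA pools (0.43 μM) carrying a 21-nt variable region. The 50 μL reactions contained HEPES/NaCl/KCl/MgCl2/CaCl2 buffer with 5% acetonitrile at pH 6.9–7.0 and ran for 90 minutes at room temperature. After streptavidin capture, RNA was measured by qPCR in triplicate and by Illumina sequencing, and catalytic enhancement was calculated as median kA over the uncatalyzed rate from a pseudo-first-order fit of per-sequence fraction reacted.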
# biotinyl-Trp-oxazolone = test: self-aminoacylation, catalytic enhancement (BWO) (fold over background); higher = more active; k-Seq, kA / k0A0; sequences stand for … in GGGAAUGGAUCCACAUCUACGAAUUC…UUCACUGCAGACUUGACGAAGCUG
# Method in brief: as §1
# biotinyl-Leu-oxazolone = test: self-aminoacylation, catalytic enhancement (BLO) (fold over background); higher = more active; k-Seq, kA / k0A0; sequences stand for … in GGGAAUGGAUCCACAUCUACGAAUUC…UUCACUGCAGACUUGACGAAGCUG
# Method in brief: as §1
# biotinyl-Phe-oxazolone = test: self-aminoacylation, catalytic enhancement (BFO) (fold over background); higher = more active; k-Seq, kA / k0A0; sequences stand for … in GGGAAUGGAUCCACAUCUACGAAUUC…UUCACUGCAGACUUGACGAAGCUG
# Method in brief: as §1
# biotinyl-Met-oxazolone = test: self-aminoacylation, catalytic enhancement (BMO) (fold over background); higher = more active; k-Seq, kA / k0A0; sequences stand for … in GGGAAUGGAUCCACAUCUACGAAUUC…UUCACUGCAGACUUGACGAAGCUG
# Method in brief: as §1
# biotinyl-Ile-oxazolone = test: self-aminoacylation, catalytic enhancement (BIO) (fold over background); higher = more active; k-Seq, kA / k0A0; sequences stand for … in GGGAAUGGAUCCACAUCUACGAAUUC…UUCACUGCAGACUUGACGAAGCUG
# Method in brief: as §1
sequence,measurement,setting,value
AUUCCCCUGGUUAUCGAGUGA [Fam2.1 aminoacylation ribozyme variant],self-aminoacylation,biotinyl-Val-oxazolone,5.49
same,self-aminoacylation,biotinyl-Trp-oxazolone,14.5
same,self-aminoacylation,biotinyl-Leu-oxazolone,9.8
same,self-aminoacylation,biotinyl-Phe-oxazolone,82.2
same,self-aminoacylation,biotinyl-Met-oxazolone,10.2
same,self-aminoacylation,biotinyl-Ile-oxazolone,5.07
AUUCACCAAGGUCAUUGGGUG [Fam2.2 aminoacylation ribozyme variant],self-aminoacylation,biotinyl-Val-oxazolone,4.54
same,self-aminoacylation,biotinyl-Trp-oxazolone,6.53
same,self-aminoacylation,biotinyl-Leu-oxazolone,9.21
same,self-aminoacylation,biotinyl-Phe-oxazolone,49.8
same,self-aminoacylation,biotinyl-Met-oxazolone,6.78
same,self-aminoacylation,biotinyl-Ile-oxazolone,4.07
CCACACUUCAAGCAAUCGCCC [Fam1B.1 aminoacylation ribozyme variant],self-aminoacylation,biotinyl-Val-oxazolone,2.32
same,self-aminoacylation,biotinyl-Trp-oxazolone,1.58
same,self-aminoacylation,biotinyl-Leu-oxazolone,2
same,self-aminoacylation,biotinyl-Phe-oxazolone,0.498
same,self-aminoacylation,biotinyl-Met-oxazolone,1.33
same,self-aminoacylation,biotinyl-Ile-oxazolone,0.996
AAGUUUGCUAAUAGUUGCACG [Fam3.1 aminoacylation ribozyme variant],self-aminoacylation,biotinyl-Val-oxazolone,1.14
same,self-aminoacylation,biotinyl-Trp-oxazolone,1.75
same,self-aminoacylation,biotinyl-Leu-oxazolone,1.1
same,self-aminoacylation,biotinyl-Phe-oxazolone,1.38
same,self-aminoacylation,biotinyl-Met-oxazolone,1.31
same,self-aminoacylation,biotinyl-Ile-oxazolone,1.11
AUUCACCCAGGUCAUCGGAUG [Fam2.2 aminoacylation ribozyme variant],self-aminoacylation,biotinyl-Val-oxazolone,0.988
same,self-aminoacylation,biotinyl-Trp-oxazolone,1.07
same,self-aminoacylation,biotinyl-Leu-oxazolone,0.895
same,self-aminoacylation,biotinyl-Phe-oxazolone,0.458
same,self-aminoacylation,biotinyl-Met-oxazolone,0.669
same,self-aminoacylation,biotinyl-Ile-oxazolone,0.889
AUUCACCUUGUUCAUCGGGUG [Fam2.2 aminoacylation ribozyme variant],self-aminoacylation,biotinyl-Val-oxazolone,2.42
same,self-aminoacylation,biotinyl-Trp-oxazolone,2.91
same,self-aminoacylation,biotinyl-Leu-oxazolone,3.38
same,self-aminoacylation,biotinyl-Phe-oxazolone,15.2
same,self-aminoacylation,biotinyl-Met-oxazolone,2.72
same,self-aminoacylation,biotinyl-Ile-oxazolone,2.01
AAGUUUGCAAAUAUUCGCAAG [Fam3.1 aminoacylation ribozyme variant],self-aminoacylation,biotinyl-Val-oxazolone,1.03
same,self-aminoacylation,biotinyl-Trp-oxazolone,1.35
same,self-aminoacylation,biotinyl-Leu-oxazolone,1.09
same,self-aminoacylation,biotinyl-Phe-oxazolone,1.3
same,self-aminoacylation,biotinyl-Met-oxazolone,1.25
same,self-aminoacylation,biotinyl-Ile-oxazolone,0.999
CCACACCUCAAGGAAUCGGUC [Fam1B.1 aminoacylation ribozyme variant],self-aminoacylation,biotinyl-Val-oxazolone,1.26
same,self-aminoacylation,biotinyl-Trp-oxazolone,1.32
same,self-aminoacylation,biotinyl-Leu-oxazolone,1.34
same,self-aminoacylation,biotinyl-Phe-oxazolone,0.875
same,self-aminoacylation,biotinyl-Met-oxazolone,1.02
same,self-aminoacylation,biotinyl-Ile-oxazolone,1.34
CUACUUAAAAAAAUCGGUCUG [Fam1A.1 aminoacylation ribozyme variant],self-aminoacylation,biotinyl-Val-oxazolone,0.804
same,self-aminoacylation,biotinyl-Trp-oxazolone,0.49
same,self-aminoacylation,biotinyl-Leu-oxazolone,0.768
same,self-aminoacylation,biotinyl-Phe-oxazolone,0.661
same,self-aminoacylation,biotinyl-Met-oxazolone,0.806
same,self-aminoacylation,biotinyl-Ile-oxazolone,0.88
CCACACAUCAAGCAGUCGGUC [Fam1B.1 aminoacylation ribozyme variant],self-aminoacylation,biotinyl-Val-oxazolone,1.05
same,self-aminoacylation,biotinyl-Trp-oxazolone,0.457
same,self-aminoacylation,biotinyl-Leu-oxazolone,0.799
same,self-aminoacylation,biotinyl-Phe-oxazolone,0.847
same,self-aminoacylation,biotinyl-Met-oxazolone,0.686
same,self-aminoacylation,biotinyl-Ile-oxazolone,0.93
CCACACUUCGAGCAAUUGGUC [Fam1B.1 aminoacylation ribozyme variant],self-aminoacylation,biotinyl-Val-oxazolone,0.956
same,self-aminoacylation,biotinyl-Trp-oxazolone,0.375
same,self-aminoacylation,biotinyl-Leu-oxazolone,0.747
same,self-aminoacylation,biotinyl-Phe-oxazolone,0.518
same,self-aminoacylation,biotinyl-Met-oxazolone,0.721
same,self-aminoacylation,biotinyl-Ile-oxazolone,0.79
CCACACUUCACGCAAUCGAUC [Fam1B.1 aminoacylation ribozyme variant],self-aminoacylation,biotinyl-Val-oxazolone,0.606
same,self-aminoacylation,biotinyl-Trp-oxazolone,0.618
same,self-aminoacylation,biotinyl-Leu-oxazolone,0.514
same,self-aminoacylation,biotinyl-Phe-oxazolone,0.676
same,self-aminoacylation,biotinyl-Met-oxazolone,0.55
same,self-aminoacylation,biotinyl-Ile-oxazolone,0.568
CUACUUCAAACGAUGGGUCUG [Fam1A.1 aminoacylation ribozyme variant],self-aminoacylation,biotinyl-Val-oxazolone,1
same,self-aminoacylation,biotinyl-Trp-oxazolone,0.62
same,self-aminoacylation,biotinyl-Leu-oxazolone,0.764
same,self-aminoacylation,biotinyl-Phe-oxazolone,0.674
same,self-aminoacylation,biotinyl-Met-oxazolone,0.58
same,self-aminoacylation,biotinyl-Ile-oxazolone,0.746
GUUAACCUGGUCAUCGAGUGA [Fam2.1 aminoacylation ribozyme variant],self-aminoacylation,biotinyl-Val-oxazolone,3.95
same,self-aminoacylation,biotinyl-Trp-oxazolone,8.69
same,self-aminoacylation,biotinyl-Leu-oxazolone,6.73
same,self-aminoacylation,biotinyl-Phe-oxazolone,24.2
same,self-aminoacylation,biotinyl-Met-oxazolone,6.75
same,self-aminoacylation,biotinyl-Ile-oxazolone,4.69
CUACUUCCACCAAUCGGUCUG [Fam1A.1 aminoacylation ribozyme variant],self-aminoacylation,biotinyl-Val-oxazolone,0.877
same,self-aminoacylation,biotinyl-Trp-oxazolone,0.387
same,self-aminoacylation,biotinyl-Leu-oxazolone,0.793
same,self-aminoacylation,biotinyl-Phe-oxazolone,0.84
same,self-aminoacylation,biotinyl-Met-oxazolone,0.684
same,self-aminoacylation,biotinyl-Ile-oxazolone,0.912
CCACACAUCAAGCAAUCGAUC [Fam1B.1 aminoacylation ribozyme variant],self-aminoacylation,biotinyl-Val-oxazolone,0.748
same,self-aminoacylation,biotinyl-Trp-oxazolone,0.513
same,self-aminoacylation,biotinyl-Leu-oxazolone,0.581
same,self-aminoacylation,biotinyl-Phe-oxazolone,0.914
same,self-aminoacylation,biotinyl-Met-oxazolone,0.439
same,self-aminoacylation,biotinyl-Ile-oxazolone,0.575
CCACACAUCAGGCAAUCGGUC [Fam1B.1 aminoacylation ribozyme variant],self-aminoacylation,biotinyl-Val-oxazolone,1.3
same,self-aminoacylation,biotinyl-Trp-oxazolone,0.806
same,self-aminoacylation,biotinyl-Leu-oxazolone,1.12
same,self-aminoacylation,biotinyl-Phe-oxazolone,1.15
same,self-aminoacylation,biotinyl-Met-oxazolone,1.03
same,self-aminoacylation,biotinyl-Ile-oxazolone,1.25
AUUACCCAGGUCAUCGGGUGA [Fam2.1 aminoacylation ribozyme variant],self-aminoacylation,biotinyl-Val-oxazolone,7.25
same,self-aminoacylation,biotinyl-Trp-oxazolone,11
same,self-aminoacylation,biotinyl-Leu-oxazolone,12.6
same,self-aminoacylation,biotinyl-Phe-oxazolone,75.2
same,self-aminoacylation,biotinyl-Met-oxazolone,11.5
same,self-aminoacylation,biotinyl-Ile-oxazolone,5.86
AAUCACCUAGGUCAUCGAGUG [Fam2.2 aminoacylation ribozyme variant],self-aminoacylation,biotinyl-Val-oxazolone,2.86
same,self-aminoacylation,biotinyl-Trp-oxazolone,3.26
same,self-aminoacylation,biotinyl-Leu-oxazolone,4.65
same,self-aminoacylation,biotinyl-Phe-oxazolone,7.56
same,self-aminoacylation,biotinyl-Met-oxazolone,3.92
same,self-aminoacylation,biotinyl-Ile-oxazolone,3.52
GUUACCCUGGUCAUCGAGUUA [Fam2.1 aminoacylation ribozyme variant],self-aminoacylation,biotinyl-Val-oxazolone,5.21
same,self-aminoacylation,biotinyl-Trp-oxazolone,10
same,self-aminoacylation,biotinyl-Leu-oxazolone,11.1
same,self-aminoacylation,biotinyl-Phe-oxazolone,23.1
same,self-aminoacylation,biotinyl-Met-oxazolone,12
same,self-aminoacylation,biotinyl-Ile-oxazolone,4.48
CCGCACUUCAAGUAAUCGGUC [Fam1B.1 aminoacylation ribozyme variant],self-aminoacylation,biotinyl-Val-oxazolone,1.37
same,self-aminoacylation,biotinyl-Trp-oxazolone,14.5
same,self-aminoacylation,biotinyl-Leu-oxazolone,1.54
same,self-aminoacylation,biotinyl-Phe-oxazolone,15.6
same,self-aminoacylation,biotinyl-Met-oxazolone,1.4
same,self-aminoacylation,biotinyl-Ile-oxazolone,1.3
